What all share (assay): purified protein
Common to all, as to settings: 0.2 mM NADPH, 50 mM Tris-HCl pH 7.5, 1 mM DTT, 25°C

In one data set the test system is CC(=O)C(C)O.
Substrate in data set [1]: CC(C)=O
Substrate in data set [2]: CCC(C)=O
Substrate in data set [3]: CC(=O)C(C)O
This is another data set of the same source.

Take “CaADH (Clostridium autoethanogenum DSM 10061; S199R)”: in the data set on CC(=O)C(C)O, the Km stood at 34 ± 5 mM, the kcat amounted to 95 ± 4 s⁻¹ and the kcat/Km turned out to be 2800 M⁻¹ s⁻¹.

B1: CaADH (Clostridium autoethanogenum DSM 10061) (protein)
chain: KGFAMLGINKLGWIEKKNPVPGPYDAIVHPLAVSPCTSDIHTVFEGALGNRENMILGHEAVGEIAEVGSEVKDFKVGDRVIVPCTTPDWRSLEVQAGFQQHSNGMLAGWKFSNFKDGVFADYFHVNDADMNLAILPDEIPLESAVMMTDMMTTGFHGAELADIKMGSSVVVIGIGAVGLMGIAGSKLRGAGRIIGVGSRPVCVETAKFYGATDIVNYKNGDIVEQIMDLTHGKGVDRVIMAGGGAETLAQAVTMVKPGGVISNINYHGSGDTLPIPRVQWGCGMAHKTIRGGLCPGGRLRMEMLRDLVLYKRVDLSKLVTHVFDGAENIEKALLLMKNKPKDLIKSVVTF
B1: the Km is 1.0 ± 0.1 mM in “purified protein [1]”, 1.8 ± 0.2 mM in “purified protein [2]” and 98 ± 10 mM in “purified protein [3]”. Besides, the kcat came to 55 s⁻¹ in the data set “purified protein [1]”, 37 s⁻¹ in “purified protein [2]” and 150 ± 8 s⁻¹ in the data set “purified protein [3]”. Also, the results for the kcat/Km in “purified protein [1]”, in “purified protein [2]” and in “purified protein [3]” were 55000 M⁻¹ s⁻¹, 21000 M⁻¹ s⁻¹ and 1600 M⁻¹ s⁻¹, respectively.

These data come from PMC4498498.
